We go through 140 substances from the supplement of paper PMC12042874.

± gives the uncertainty stated by the source.

The data set is described as follows: amyloid nucleation score (Sup35N fusion, yeast selection) (log enrichment); library NNK1; higher = more nucleation; inactive = no reads after selection. In short, it runs like this: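 Plasmid inserts were Illumina-sequenced at input and output from psi-negative yeast expressing Sup35N fused to peptides of 20 random codons. The yeast were induced with 100 μM copper sulfate for 24 hours and grown 7 days at 30°C on medium lacking adenine and uracil, and sequences with under 100 input reads were excluded. Nucleation score is the DiMSum log enrichment of output over input reads, centred on the mode score of non-aggregating sequences.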
REDPIALGSRWTRPISKTLG returned an amyloid nucleation score of 0.734 ± 0.97.

In the case of QLVTVADLLTKFPGILSWSG, the amyloid nucleation score result was “inactive”.

NTQTFEAFSKSFMDLIVRRF returned an amyloid nucleation score of -0.735 ± 1.2.

With HQNRDIIMMMSFCAGNTGYK, the amyloid nucleation score was determined as 4.98 ± 0.12.

With GCLFICSMRELYKSASSTMR, the amyloid nucleation score came to 0.141 ± 0.48.

TLCQCKLT yielded an amyloid nucleation score of -0.286 ± 0.67.

MLVCDWKTDLGNI displayed an amyloid nucleation score of 0.811 ± 0.64.

For the substance MSSLIVYLRDAPRVLNLYVR, the amyloid nucleation score turned out to be 2.5 ± 0.17.

In turn, ILMLKH showed an amyloid nucleation score of -0.484 ± 0.68.

For YNVKSVCGRAPIGVMGRKWG, the amyloid nucleation score amounted to 0.618 ± 0.52.

As to AMWYTRRMQVENVKTVLSLM, the amyloid nucleation score is -0.027 ± 0.34.

Take ADARVQGLSRLWGSGFNRLP: the amyloid nucleation score turned out to be 0.53 ± 0.51.

Regarding NSYWLRCILPM, the amyloid nucleation score was -0.065 ± 0.3.

For ELGSGFQFVYSYS, the amyloid nucleation score was -0.465 ± 0.46.

SVDVTRIIMIVVCRFKMWEL gave an amyloid nucleation score of 0.736 ± 0.32.

On to VPPASQISGPWARLSEMVSH, for which the amyloid nucleation score is -1.12 ± 0.7.

LKTRALASGWEAECADRGGV came in with an amyloid nucleation score of -0.056 ± 0.64.

WESEFYLGLELERVAGGSGG came in with an amyloid nucleation score of -1.03 ± 2.7.

Consider AFVIFVYNKSIAQIWHFRGY, for which the amyloid nucleation score is -0.797 ± 0.37.

DGGAFAGRS yielded an amyloid nucleation score of -1.06 ± 0.81.

DICVWDYMNRGGQLL had an amyloid nucleation score of -0.047 ± 0.86.

With AFLIIMSGSGNCICLRSLVS, the amyloid nucleation score was -0.385 ± 0.3.

LMLTARPVMFVLLCWWFRSS returned an amyloid nucleation score of 0.246 ± 0.43.

NWMCKHSVGP: the amyloid nucleation score came out at 0.665 ± 0.72.

With FDGVRARDALFSGCL, the amyloid nucleation score is -0.705 ± 0.59.

As to MDSFVITSFSYNTSLTMRIL, the amyloid nucleation score turned out to be 1.4 ± 0.42.

As for VADFSL, the amyloid nucleation score came out at 1.44 ± 0.53.

As to ERLHMLLAKCIHVGETRHLN, the amyloid nucleation score is 0.194 ± 0.66.

CCVNVPIFRRKFGTCSCKAW came in with an amyloid nucleation score of 0.065 ± 0.93.

For SLMFTPEYCVED, the amyloid nucleation score was 1.41 ± 0.69.

SLGLFKIIRKPYHCSAPSQA came in with an amyloid nucleation score of 0.551 ± 0.47.

In turn, AAVMCAIDLIGLNFGLGNWK had an amyloid nucleation score of 7.816 ± 0.052.

Consider YNAARLFPYVNVWGII, for which the amyloid nucleation score was -0.305 ± 1.3.

With DHSCWGAWWVHFGAHDGGWC, the amyloid nucleation score was 1.25 ± 0.79.

In turn, WDLLLWSVNRDRRV registered an amyloid nucleation score of 1.47 ± 0.55.

In turn, RDCFIRGKWCTCWHWCEGGE came in with an amyloid nucleation score of 1.34 ± 0.27.

For YKAKGRNAVS, the amyloid nucleation score is -0.689 ± 1.6.

Consider SHIFRWNTCRMEIRWYNQYY, for which the amyloid nucleation score came to 1.14 ± 0.71.

Take YIMILYRKGMFILRVFSLLL: the amyloid nucleation score was -0.293 ± 0.24.

MGGWNGNGIFCAYIYM had an amyloid nucleation score of 0.344 ± 0.15.

In the case of CSVRAVGILRWAFFGEHPLN, the amyloid nucleation score is -0.422 ± 0.41.

Take AVCSMKKSVMYELNVGFTYR: the amyloid nucleation score result was “inactive”.

Regarding CPLAIVDTVHCRNSSSFSQ, the amyloid nucleation score was -0.488 ± 0.45.

KRCFVLWLHRLWVGVNVFAD came in with an amyloid nucleation score of 0.237 ± 0.25.

In the case of LVFCVLMW, the amyloid nucleation score is 0.532 ± 0.16.

For the substance VSYQGTSAFDGSRKVVGPTL, the amyloid nucleation score is 0.353 ± 0.54.

Consider LIIKEFITLLSPCWELLRIR, for which the amyloid nucleation score was found to be 0.901 ± 0.9.

In the case of ISCKWYNHISSRLNFMWHAK, the amyloid nucleation score was 0.394 ± 0.88.

For the substance GENYLGCLGSFWKTSNTCCP, the amyloid nucleation score was -0.881 ± 1.4.

On to CDGLLYELRSVEWGKGKLNG, for which the amyloid nucleation score stood at 0.438 ± 0.38.

The substance HAGFGFVSSCCYLHWLTGDR displayed an amyloid nucleation score of 3.98 ± 0.095.

For GFMIICN, the amyloid nucleation score is -0.405 ± 0.88.

SGWIKIFG came in with an amyloid nucleation score of -0.293 ± 0.66.

Consider GLIMYPRGYMCKSIT, for which the amyloid nucleation score is 0.813 ± 0.43.

Regarding NSNCELGKVHFAV, the amyloid nucleation score was 0.501 ± 0.35.

In turn, HCWFRSWPWTISK displayed an amyloid nucleation score of -0.913 ± 1.5.

On to SVNTPTGSIFEICQYDSIKG, for which the amyloid nucleation score was -0.302 ± 0.45.

Consider TVAFSVTTVDR, for which the amyloid nucleation score is -0.875 ± 2.4.

Turning to VFNCWCLTEFFVMYGIVCQK, the amyloid nucleation score is 4.52 ± 0.1.

Turning to PICANWLMHTVMINSSSGRG, the amyloid nucleation score came to 0.27 ± 0.32.

Take VSGLRRSRSWWAFDVQSLLR: the amyloid nucleation score turned out to be 0.544 ± 0.55.

VTMNRIV: the amyloid nucleation score was 0.501 ± 0.21.

For KRPSSFVEFFMLWRSKAR, the amyloid nucleation score stood at 0.947 ± 0.43.

In turn, FHIQEANIFRE registered an amyloid nucleation score of -0.17 ± 0.24.

RDFRYCFRCVIINMHRDHFQ had an amyloid nucleation score of 3.99 ± 0.06.

In turn, VSLINRRYCPATVFGF gave an amyloid nucleation score of 0.117 ± 0.4.

In the case of FALGCF, the amyloid nucleation score was -0.079 ± 0.36.

Turning to VRVLGVIMYARLLPVGLWGY, the amyloid nucleation score entry is “inactive”.

On to LAVFSNVLLYVEDMSALIRG, for which the amyloid nucleation score was found to be 0.129 ± 0.2.

VITIGMFCRIIEGHYVMYLT: the amyloid nucleation score stood at 0.089 ± 0.47.

For the substance TYGDGEAE, the amyloid nucleation score entry was “inactive”.

Substance IRMGCNVHREEVSFTVLAVH gave an amyloid nucleation score of 0.409 ± 0.66.

For MREDIAFDFW, the amyloid nucleation score worked out at 4.22 ± 0.15.

Consider EYGNGSIKPVGRHWLEGYLH, for which the amyloid nucleation score was -0.701 ± 1.

Consider MSSESLSMGRLDMG, for which the amyloid nucleation score entry was “inactive”.

RIVISCRFEYGLGVGSSGVP showed an amyloid nucleation score of 0.156 ± 1.6.

As to CFWRNFDRGEAS, the amyloid nucleation score came to 0.94 ± 0.97.

For the substance SVSYVELLGAFIKGLGIIYF, the amyloid nucleation score is -0.999 ± 0.63.

Turning to RWIPQNMHQLWKASDGNERM, the amyloid nucleation score was -0.697 ± 0.41.

DSMKN showed an amyloid nucleation score of 1.39 ± 0.13.

Regarding ICVCKDVCGLYRCLLGTGGS, the amyloid nucleation score turned out to be 1.13 ± 0.57.

QLSLGHNFLCYVMSMRVREV: the amyloid nucleation score entry was “inactive”.

FTKGNYCSGLLGSSSRWTPF: the amyloid nucleation score is 0.926 ± 0.74.

Substance DYWRHSHVLHSPTKRKNRLV had an amyloid nucleation score of 0.223 ± 0.34.

On to FLMWMWLVSNRKHWLFTDKV, for which the amyloid nucleation score is -2.54 ± 2.7.

CFSISVTAYHSKSAT: the amyloid nucleation score is 4.14 ± 0.099.

In the case of CWMHFPYQVESDGQTNRAFD, the amyloid nucleation score amounted to 0.041 ± 0.34.

For PGVECACRVSNATNVDGLDL, the amyloid nucleation score is -0.168 ± 0.5.

For HKIDINSVLLLKCVVYVGCL, the amyloid nucleation score was 4.12 ± 0.066.

Consider YIGECLRKLIRCAHKDCEGY, for which the amyloid nucleation score was -1.49 ± 1.2.

In turn, TAYWIVYRVKGLLRFFSRLA registered an amyloid nucleation score of 0.011 ± 0.36.

As to VWIALFDVTDDMSARTDIWS, the amyloid nucleation score is -0.876 ± 0.74.

For the substance NFRNLSYCFQFPMFVARRLK, the amyloid nucleation score is 1.06 ± 0.67.

GLLRAA displayed an amyloid nucleation score of 0.296 ± 0.27.

In turn, GRLVVGIREGIIS gave an amyloid nucleation score of 0.058 ± 0.35.

Turning to RGYQTSGLT, the amyloid nucleation score is -0.756 ± 2.4.

NFGIRGRRTAGLEVRCLRRC yielded an amyloid nucleation score of -1.22 ± 2.7.

For the substance FIFPAHCSLRSIDFSQGYIR, the amyloid nucleation score was -0.321 ± 0.36.

Regarding LNRSTDAFWNKIRTG, the amyloid nucleation score was 1.01 ± 0.49.

The substance TMPNSFRWCLNGRVRRDRFC registered an amyloid nucleation score of -0.215 ± 0.97.

NLPLLFL registered an amyloid nucleation score of -0.069 ± 0.27.

The substance YFAPFRGTSWFTRSCN showed an amyloid nucleation score of -0.011 ± 0.79.

For YCSHMLRMYFSEDRPLAQLM, the amyloid nucleation score is -0.399 ± 0.74.

LFAIKYCDVSD yielded an amyloid nucleation score of 0.286 ± 0.43.

Substance WSGFFFAGLWVVLCVEGGAC returned an amyloid nucleation score of 0.192 ± 0.88.

CRAGLVMSGWCRWFAQWMDS: the amyloid nucleation score was -0.551 ± 0.59.

The substance SFYCSHEVYLCNALYIDRVR came in with an amyloid nucleation score of 3.67 ± 0.098.

Turning to GLGWHFTL, the amyloid nucleation score is -0.407 ± 0.28.

In turn, ASLVDVGSP returned an amyloid nucleation score of 0.215 ± 0.32.

ILFRVVSRVGISRYGWKRVL: the amyloid nucleation score is -0.241 ± 0.83.

Take IGFML: the amyloid nucleation score turned out to be 1.69 ± 0.32.

NHHLRPEMQEVCHL came in with an amyloid nucleation score of 0.482 ± 0.67.

The substance VYRSHLRTNFSTFTSMSSVL had an amyloid nucleation score of -0.626 ± 1.4.

As to SYRPFLMLGAQLQPYRVSGS, the amyloid nucleation score came out at 1.32 ± 0.6.

The substance GARYNASDRGEASYLIEHCG returned an amyloid nucleation score of -0.531 ± 0.99.

In turn, YMGLYWLDRRMICMQLLWTL showed an amyloid nucleation score of 2.37 ± 0.4.

Substance NSFSDAYKIVYLHIYRSGGI displayed an amyloid nucleation score of -0.448 ± 0.6.

The substance IRQQFKCYGEFCATM showed an amyloid nucleation score of -0.587 ± 1.2.

As to ASKFYHFRTQEYTS, the amyloid nucleation score is 0.212 ± 0.28.

As for RRREKHAMDPELRARGQQ, the amyloid nucleation score is -0.106 ± 0.73.

Consider KFFFKSSNDVIKGVHNRTIR, for which the amyloid nucleation score is -0.404 ± 0.49.

On to TWGRVFSLMAPFISRPCFWG, for which the amyloid nucleation score is -0.385 ± 0.34.

VVMNLLVLIGYLSSLYFLQA: the amyloid nucleation score was -1.04 ± 1.9.

AYNFRSRRWMLFGYNWVSAP registered an amyloid nucleation score of 1.59 ± 0.51.

The substance NCFSMRQRECCRYRMCVNGI had an amyloid nucleation score of 1.01 ± 0.55.

SYLNPTVMILGFYP had an amyloid nucleation score of 0.825 ± 0.41.

The substance SCPTMYSYVFWVRFQSGTAS had an amyloid nucleation score of 1.72 ± 0.13.

The substance LWTFGDRSVWLDDSMRWVPR returned an amyloid nucleation score of -0.145 ± 1.1.

Turning to ASLTDVYIDELRLSNEGTWN, the amyloid nucleation score worked out at 1.94 ± 0.65.

Turning to NNRCPCYSILWNRWRNKVA, the amyloid nucleation score result was “inactive”.

In turn, SRYYLSRPVLRYG displayed an amyloid nucleation score of 0.546 ± 0.42.

With RLVEQFRGMLLWY, the amyloid nucleation score was -0.673 ± 0.64.

For the substance EKGFVYYTRGYLRDGLGRSQ, the amyloid nucleation score was -0.222 ± 0.35.

As to AYCLRN, the amyloid nucleation score worked out at 0.211 ± 0.68.

For IGGHRYGVDKY, the amyloid nucleation score is -0.194 ± 0.72.

ILVSQCRRLVYFVGSVCFST displayed an amyloid nucleation score of 0.622 ± 0.53.

MMGIMYLWTWYCN had an amyloid nucleation score of 0.385 ± 0.58.

GAYNWVF showed an amyloid nucleation score of -0.107 ± 0.55.

As for IDMGSGTNFSTCKCATLIMI, the amyloid nucleation score entry is “inactive”.

For the substance GDIALS, the amyloid nucleation score is -0.292 ± 0.41.
